Experimental data as given in patent US20050064507A1, “Determining kinase specificity” (priority 2003, published 2005).

Legend:
Assay type in all cases: biochemical
PKC-delta = molecular target: T1, PKC-delta (Homo sapiens, UniProt Q05655); test: In vitro kinase assay: peptide phosphorylation by PKC-delta; details: for PKC delta phosphorylation: normalized to best substrate;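 on PKC delta phosphorylation: peptide concentration 10 nM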
T1 construct: purchased Calbiochem
From the text: One approach to validating a substrate identification method can involve, for example, comparison of substrate sites predicted by the method with in vitro phosphorylation results obtained using the selected kinase and peptides of known sequences. Such a systematic validation has been performed for the methods described herein. For example, a panel of seventy five peptides was synthesized, the phosphorylation observed for each peptide was experimentally measured, the amount of phosphorylation was quantified, the phosphorylation results for each peptide were normalized to the phosphorylation observed with the best substrate tested and these amounts were compared with predictions made according to the invention and according to the procedures provided by others. These peptides are referred to herein as proteomic peptides because their sequences are chosen from proteins in the human proteome; unlike the test sets employed herein, these peptides include no degenerate positions
Table 2 compares the present predictions with actual measurements of phosphorylation on validating peptides. The method of synthesis of the validating peptides was as described elsewhere in the application, and each included an N-terminal linker sequence of biotinylated-Lys-dansylated-Lys-Pro-Pro-Gly (SEQ ID NO:231). The length of the remaining “core” of the validating peptides ranged from 12-21 residues with one to five S/T residues. In vitro phosphorylation of these validating peptides was measured in the manner described herein. […] In vitro phosphorylation results for the validating peptides were expressed as normalized values, namely as a percentage of phosphorylation of the best validating peptide substrate in the group.
(§1) The conditions of the kinase assay and the amount of active kinase used varied with the kinase and with the accuracy needed. For a typical experiment, 5-20 ng of kinase was used per well and each peptide pool was assayed in duplicate wells. Note that the absolute amount of kinase used was not usually a critical parameter, because the desired information related to specificity of the kinase not its absolute activity, and robustness of the assay depends on comparisons of the same amount of kinase on different peptides. The combination of kinase concentration and assay duration was modified to assure that the stoichiometry of peptide phosphorylation never exceeded 5%. The choice of kinase buffer depended on the kinase being analyzed. For studies of PKC, 100 mM HEPES, 0.05% Triton-X100, 1 mM CaCl2, 20 mM MgCl2, 0.2 mg/ml phosphatidyl serine (Avanti Polar Lipids), PMA 100 ng/ml was typically used. The lipid stock was prepared by transferring 3 mg phosphatidyl serine into iced mixture of 450 μl water plus 50 μl of 10% Triton-X100, sonicating 10 times on ice for 1 sec each.
(§2) The kinase reaction mixture was assembled by sequential addition to a tube held on ice of: 5 μl peptide (100 μM for final concentration of 10 μM), 15 μl of kinase (typically 5 ng/well, in appropriate kinase buffer), 30 μl of ATP (1 uCi/well of ^32P-gamma ATP in a stock of 167 μM cold ATP in the kinase buffer; for final concentration for 100 μM ATP). The mixture was rapidly warmed to desired reaction temperature (30° C. for PKC) and incubated for the desired duration (usually 10 minutes). The kinase assay was terminated by transfer to 4° C. water batch, and rapid addition of an equal volume (50 μl) of stop solution [0.1M ATP+0.1M EDTA in water, pH 8].
The peptides were then captured from the reaction mixture by transfer to a Reacti-Bind Streptavidin High Binding Capacity Coated Plates (HBC) (Pierce Biotechnology) as follows. The HBC plates were pre-rinsed three times with PBS/Tween PBS/Tween20 0.05% (PBS/Tween). […]

PKC-alpha = molecular target: T2, PKC-alpha (Homo sapiens, UniProt P17252); test: In vitro kinase assay: peptide phosphorylation by PKC-alpha; details: for PKC alpha phosphorylation: normalized to best substrate
T2 construct: purchased Calbiochem
Experimental: (§3) Catalytically active preparations of the kinases of interest were either purchased or prepared. Purchased and tested active kinase preparations including the following: PKC-alpha, PKC-delta, PKC-epsilon, PKC-zeta, PKC-mu, PKA, PKG from Calbiochem, ROK alpha/ROCK-II, active from Upstate Biotechnology, and AKT1 from Panvera.
as §1, §2
(§4) The peptides were then captured from the reaction mixture by transfer to a Reacti-Bind Streptavidin High Binding Capacity Coated Plates (HBC) (Pierce Biotechnology) as follows. The HBC plates were pre-rinsed three times with PBS/Tween PBS/Tween20 0.05% (PBS/Tween). Part of all of the reaction mixture was then transferred wells of a HBC plate pre-filled with 90 μl of phosphate-buffered saline (PBS); typically each aliquots of each phosphorylation reaction were transferred to duplicate HBC plates to assure accuracy by additional replication
(§5) For kinase assays done at the standard peptide concentration of 10 μM, the peptide concentration in the reaction mixture becomes 5 μM after addition of the stop solution; consequently 10 μl of the reaction (50 pMoles of peptide) was transferred to the HBC plate. More generally, the amount of reaction mixture transferred was estimated to be about 50 pMoles of peptide. […] The HBC plates were incubated for 0.5 to 1.5 hr at room temperature for complete binding of biotinylated peptides to plate-bound streptavidin. The HBC plates were then washed extensively with PBS/Tween. Five washes were done routinely and additional wash steps were added if the wash solution removed from the plate had measurable radioactivity as detected using a Geiger counter. This step is essential to obtaining a good the signal to noise ratio because the fraction of radioactivity incorporated in the peptides was a tiny fraction of the total in the reaction mixture. The wells were air-dried. A volume of 40-50 μl of microScint-20 (Packard Instruments) was added to each well. The plates were covered with stick-on film sheet. Radioactive emissions were measured in a TopCount NXT Microplate Scintillation and Luminescence Counter (Packard Instruments). Typically samples were counted for 5 minutes (or more) to improve the signal to noise ratio when counts were low. […]

PKC-zeta = molecular target: T3, PKC-zeta (Homo sapiens, UniProt Q05513); test: In vitro kinase assay: peptide phosphorylation by PKC-zeta; details: for PKC-zeta phosphorylation: normalized to best substrate
T3 construct: purchased Calbiochem
T3 sequence (Q05513 1-592): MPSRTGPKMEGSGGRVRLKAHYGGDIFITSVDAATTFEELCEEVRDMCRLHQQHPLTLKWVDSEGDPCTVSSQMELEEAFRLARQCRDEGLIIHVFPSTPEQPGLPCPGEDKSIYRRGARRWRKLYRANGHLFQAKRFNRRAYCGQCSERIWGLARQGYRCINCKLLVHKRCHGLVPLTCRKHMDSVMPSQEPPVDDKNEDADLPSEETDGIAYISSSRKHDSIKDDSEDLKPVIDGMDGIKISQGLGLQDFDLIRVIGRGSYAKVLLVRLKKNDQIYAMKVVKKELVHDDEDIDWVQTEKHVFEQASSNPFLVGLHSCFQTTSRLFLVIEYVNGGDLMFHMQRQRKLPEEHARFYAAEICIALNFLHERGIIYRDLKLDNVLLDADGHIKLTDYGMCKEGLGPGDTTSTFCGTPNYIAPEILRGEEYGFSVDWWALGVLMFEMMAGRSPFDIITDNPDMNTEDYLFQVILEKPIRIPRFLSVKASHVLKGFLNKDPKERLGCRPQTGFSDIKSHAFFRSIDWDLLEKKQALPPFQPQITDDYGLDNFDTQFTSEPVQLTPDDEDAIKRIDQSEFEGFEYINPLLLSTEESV
Experimental: as §3, §1, §2, §4, §5

T1 sequence (Q05655 whole entry): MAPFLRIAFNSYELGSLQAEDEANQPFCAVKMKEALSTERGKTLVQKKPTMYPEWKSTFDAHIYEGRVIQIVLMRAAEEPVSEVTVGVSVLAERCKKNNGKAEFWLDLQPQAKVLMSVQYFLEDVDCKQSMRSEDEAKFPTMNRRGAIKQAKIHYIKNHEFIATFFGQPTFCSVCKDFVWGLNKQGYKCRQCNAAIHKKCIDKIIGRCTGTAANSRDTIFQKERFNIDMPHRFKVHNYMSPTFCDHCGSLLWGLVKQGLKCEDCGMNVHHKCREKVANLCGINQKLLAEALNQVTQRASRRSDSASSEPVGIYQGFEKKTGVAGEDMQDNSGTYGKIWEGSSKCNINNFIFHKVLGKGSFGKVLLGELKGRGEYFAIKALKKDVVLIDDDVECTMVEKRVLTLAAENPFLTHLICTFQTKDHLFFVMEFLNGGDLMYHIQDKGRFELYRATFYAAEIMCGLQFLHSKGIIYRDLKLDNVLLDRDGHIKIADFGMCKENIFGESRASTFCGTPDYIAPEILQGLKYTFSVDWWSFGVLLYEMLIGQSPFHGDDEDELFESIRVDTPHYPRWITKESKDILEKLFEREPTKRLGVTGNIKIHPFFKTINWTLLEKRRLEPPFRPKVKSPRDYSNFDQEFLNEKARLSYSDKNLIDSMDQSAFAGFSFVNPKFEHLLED

Row | Substance | PKC delta phosphorylation (PKC-delta) [%] | PKC alpha phosphorylation (PKC-alpha) [%] | PKC-zeta phosphorylation (PKC-zeta) [%] | other results
1 | 76 (HVRRRRGTFKRSKLRARD) [compound 76] | 100 | 62 | 41 | –
2 | 77 (KKKKRASFKRKSSKKG) [compound 77] | 76 | 100 | 60 | –
3 | 78 (KFARKSTRRSIRLPE) [compound 78] | 52 | 69 | 100 | –
4 | 79 (NRKKKRTSFKRKA) [compound 79] | 66 | 50 | 18 | –
5 | 80 (KKKKKRFSFKKSFKL) [compound 80] | 24 | 65 | 16 | –
6 | 82 (PRLIRRGSKKRPAR) [compound 82] | 40 | 61 | 38 | –
7 | 83 (RKIPKRPGSVHRTPSRQ) [compound 83] | 38 | 41 | 4 | –
8 | 84 (QKKSRLRRRASQLKI) [compound 84] | 34 | 39 | 19 | –
9 | 85 (RFARKGSLRQKNV) [compound 85] | 34 | 42 | 56 | –
10 | 86 (RQRKRKLSFRRRTDKD) [compound 86] | 42 | 47 | 28 | –
11 | 89 (EYLERRASRRRAV) [compound 89] | 20 | 37 | 14 | –
12 | 90 (AQIVKRASLKRGKQ) [compound 90] | 32 | 40 | 5 | –
13 | 92 (DGQKRKKSLRKKLD) [compound 92] | 17 | 36 | 2 | –
14 | 93 (AARKKRISVKKKQEQ) [compound 93] | 35 | 34 | 1 | –
15 | 94 (KLAVGRHSFSRRSGV) [compound 94] | 12 | 34 | 10 | –
16 | 95 (KKKFRTPSFLKKSKK) [compound 95] | 25 | 34 | 5 | –
17 | 96 (RGFLRSASLGRRASFHLE) [compound 96] | 18 | 40 | 22 | –

Row | Substance | PKC delta phosphorylation (PKC-delta) [%] | PKC alpha phosphorylation (PKC-alpha) [%] | PKC-zeta phosphorylation (PKC-zeta) [%] | other results
18 | 99 (AGWRKKTSFRKPKED) [compound 99] | 17 | 37 | 10 | –
19 | 100 (WKGKRRSKARKKRK) [compound 100] | 22 | 14 | 8 | –
20 | 101 (GAPPRRSSIRNAH) [compound 101] | 13 | 32 | 3 | –
21 | 102 (AGSFKRNSIKKIV) [compound 102] | 14 | 35 | 2 | –
22 | 103 (LLKKRDSFRTPRDSKLE) [compound 103] | 12 | 32 | 8 | –
23 | 104 (EKIKRSSLKKVDSLKK) [compound 104] | 10 | 34 | 3 | –
24 | 105 (ALRRPSLRREADD) [compound 105] | 9 | 26 | 4 | –
25 | 106 (EILSRRPSYRKILND) [compound 106] | 9 | 23 | 15 | –
26 | 107 (QKRHARVTVKYDRRE) [compound 107] | 10 | 18 | 1 | –
27 | 108 (KATTKKRTLRKNDRK) [compound 108] | 6 | 19 | 1 | –
28 | 109 (KEVVRTDSLKGRRGR) [compound 109] | 7 | 21 | 2 | –
29 | 110 (EGGDRRASGRRK) [compound 110] | 5 | 30 | 3 | –
30 | 111 (KKKRFSFKKSFKLSGFSFKK) [compound 111] | 16 | 11 | 9 | –
31 | 112 (KRPGKKGSNKRPGKR) [compound 112] | 8 | 10 | 1 | –
32 | 113 (GENVLKKSMKSRVKG) [compound 113] | 4 | 16 | 1 | –
33 | 114 (KKKKRASFKRKSSKKG) [compound 114] | – | – | – | phosphorylation by PKC-delta (PKC-delta; peptide concentration 1 uM): 80; phosphorylation by PKC-delta (PKC-delta; peptide concentration 10 uM): 100; phosphorylation by PKC alpha (PKC-alpha; peptide concentration 1 uM): 100; phosphorylation by PKC alpha (PKC-alpha; peptide concentration 10 uM): 100; phosphorylation by PKC zeta (PKC-zeta; peptide concentration 1 uM): 45; phosphorylation by PKC zeta (PKC-zeta; peptide concentration 10 uM): 51
